Assay results as given in publication PMC12036799 (Metabolism: clinical and experimental, 2025).
Where “and” joins values, the source holds several entries; their conditions need not be identical. Equal values may be shown once.

Molecular target: the molecule itself
Assay: dimer-tetramer equilibrium assay

B1: recombinant ALDOB WT (aldolase B) (enzyme, UniProt Q91Y97 1-364, looked up)
chain: MAHRFPALTPEQKKELSEIAQRIVANGKGILAADESVGTMGNRLQRIKVENTEENRRQFRELLFSVDNSISQSIGGVILFHETLYQKDSQGNLFRNVLKEKGIVVGIKLDQGGAPLAGTNKETTIQGLDGLSERCAQYKKDGVDFGKWRAVLRIADQCPSSLAIQENANALARYASICQQNGLVPIVEPEVLPDGDHDLEHCQYVSEKVLAAVYKALNDHHVYLEGTLLKPNMVTAGHACTKKYTPEQVAMATVTALHRTVPAAVPGICFLSGGMSEEDATLNLNAINRCPLPRPWKLSFSYGRALQASALAAWGGKAANKKATQEAFMKRAMANCQAAQGQYVHTGSSGAAATQSLFTASYTY
  stoichiometry N: 2 and 4
